# Assay results taken from patent US9994628B2, “Peptides and combination of peptides for use in immunotherapy against various tumors” (IMMATICS BIOTECHNOLOGIES GMBH, priority 2015, dated 2018).
# Target: HLA-A*02:01 (Homo sapiens, UniProt P04439, D140Y/D185E/D98H/E176V/E277Q/G131W/G231S/I119V/I121R/I166T/I218V/L300P/L318F/N151K/N90K/P208A/P217A/Q86G/Q94H/R138H/R169H/T345S)
# Test: MHC binding assay: UV-ligand exchange and β2m ELISA (peptide exchange yield, Table 7)
# Settings: binding of HLA-class I restricted peptides to HLA-A*02:01, UV-ligand exchange
# Procedure, shortened: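 Peptide-MHC complexes made by UV-mediated exchange of a cleavable ligand for test peptide; exchange yield measured by ELISA detecting β2m of stabilized complexes captured on streptavidin, using refolded HLA-A*02:01/MLA-001 monomer standards (15-500 ng/ml). Samples diluted 100-fold; HRP anti-β2m, TMB, absorbance 450 nm.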
row,Substance,"Peptide exchange (MHC class I binding score, peptide exchange yield)"
1,102 (GLYPVTLVGV; listed as Homo sapiens) [compound 102],+++ (≥50% = +++)
2,121 (ALYVQAPTV; listed as Homo sapiens) [compound 121],++ (≥20% = ++)
3,109 (ILGSFELQL; listed as Homo sapiens) [compound 109],+++ (≥50% = +++)
4,154 (AIIKEIQTV; listed as Homo sapiens) [compound 154],++ (≥20% = ++)
5,10 (QLIEKNWLL; listed as Homo sapiens) [compound 10],+++ (≥50% = +++)
6,150 (VLLDMVHSL; listed as Homo sapiens) [compound 150],+++ (≥50% = +++)
7,126 (QLREAFEQL; listed as Homo sapiens) [compound 126],+++ (≥50% = +++)
8,44 (AVFNLVHVV; listed as Homo sapiens) [compound 44],+++ (≥50% = +++)
9,153 (KLVELEHTL; listed as Homo sapiens) [compound 153],+++ (≥50% = +++)
10,99 (TLFGIQLTEA; listed as Homo sapiens) [compound 99],+++ (≥50% = +++)
11,9 (SLITGQDLLSV; listed as Homo sapiens) [compound 9],+++ (≥50% = +++)
12,49 (KLIGNIHGNEV; listed as Homo sapiens) [compound 49],++ (≥20% = ++)
13,16 (SLADLSLLL; listed as Homo sapiens) [compound 16],+++ (≥50% = +++)
14,94 (YLDEVAFML; listed as Homo sapiens) [compound 94],+++ (≥50% = +++)
15,89 (SLAETIFIV; listed as Homo sapiens) [compound 89],+++ (≥50% = +++)
16,47 (GLNGFNVLL; listed as Homo sapiens) [compound 47],+++ (≥50% = +++)
17,138 (GIINKLVTV; listed as Homo sapiens) [compound 138],++ (≥20% = ++)
18,4 (VLFGELPAL; listed as Homo sapiens) [compound 4],+++ (≥50% = +++)
19,67 (FLIENLLAA; listed as Homo sapiens) [compound 67],+++ (≥50% = +++)
20,65 (SLSEKSPEV; listed as Homo sapiens) [compound 65],++ (≥20% = ++)
21,48 (KISDFGLATV; listed as Homo sapiens) [compound 48],+++ (≥50% = +++)
22,160 (TLQEWLTEV; listed as Homo sapiens) [compound 160],+++ (≥50% = +++)
23,68 (QLMNLIRSV; listed as Homo sapiens) [compound 68],+++ (≥50% = +++)

row,Substance,"Peptide exchange (MHC class I binding score, peptide exchange yield)"
1,26 (VLDGKVAVV; listed as Homo sapiens) [compound 26],+++ (≥50% = +++)
2,117 (TLLEGISRA; listed as Homo sapiens) [compound 117],++ (≥20% = ++)
3,29 (KMISAIPTL; listed as Homo sapiens) [compound 29],++ (≥20% = ++)
4,112 (ILAQDVAQL; listed as Homo sapiens) [compound 112],+++ (≥50% = +++)
5,123 (QTAPEEAFIKL; listed as Homo sapiens) [compound 123],+ (≥10% = +)
6,18 (KTASINQNV; listed as Homo sapiens) [compound 18],++ (≥20% = ++)
7,136 (LLWDAPAKC; listed as Homo sapiens) [compound 136],+++ (≥50% = +++)
8,25 (LLWGHPRVALA; listed as Homo sapiens) [compound 25],+++ (≥50% = +++)
9,1 (KLQEKIQEL; listed as Homo sapiens) [compound 1],++++ (≥75% = ++++)
10,90 (AILNVDEKNQV; listed as Homo sapiens) [compound 90],++ (≥20% = ++)
11,51 (LDSEALLTL; listed as Homo sapiens) [compound 51],++ (≥20% = ++)
12,147 (GLLSALENV; listed as Homo sapiens) [compound 147],+++ (≥50% = +++)
13,64 (SLYAGSNNQV; listed as Homo sapiens) [compound 64],++ (≥20% = ++)
14,157 (ILQDGQFLV; listed as Homo sapiens) [compound 157],++ (≥20% = ++)
15,70 (GLTEKTVLV; listed as Homo sapiens) [compound 70],++ (≥20% = ++)
16,42 (KQMSISTGL; listed as Homo sapiens) [compound 42],++ (≥20% = ++)
17,159 (QLGPVPVTI; listed as Homo sapiens) [compound 159],+++ (≥50% = +++)
18,86 (SLFSNIESV; listed as Homo sapiens) [compound 86],+++ (≥50% = +++)
19,140 (FLDSQITTV; listed as Homo sapiens) [compound 140],+++ (≥50% = +++)
20,38 (VLQQESNFL; listed as Homo sapiens) [compound 38],++ (≥20% = ++)
21,63 (KLLPMVIQL; listed as Homo sapiens) [compound 63],+++ (≥50% = +++)
22,3 (RVIDDSLVVGV; listed as Homo sapiens) [compound 3],+++ (≥50% = +++)

# Second part, the substance after the results:
row,"Peptide exchange (MHC class I binding score, peptide exchange yield)",Substance
1,+++ (≥50% = +++),169 (ALADLSVAV; listed as Homo sapiens) [compound 169]
2,+++ (≥50% = +++),181 (LLWAPTAQA; listed as Homo sapiens) [compound 181]
3,+++ (≥50% = +++),241 (KQFEGTVEI; listed as Homo sapiens) [compound 241]
4,+++ (≥50% = +++),179 (TLGEIIKGV; listed as Homo sapiens) [compound 179]
5,++ (≥20% = ++),238 (HLQEKLQSL; listed as Homo sapiens) [compound 238]
6,++ (≥20% = ++),212 (MTLSEIHAV; listed as Homo sapiens) [compound 212]
7,+++ (≥50% = +++),276 (RMPTVLQCV; listed as Homo sapiens) [compound 276]
8,++ (≥20% = ++),176 (VQSGLRILL; listed as Homo sapiens) [compound 176]
9,+++ (≥50% = +++),223 (ALHPVQFYL; listed as Homo sapiens) [compound 223]
10,+ (≥10% = +),259 (GPGIFPPPPPQP; listed as Homo sapiens) [compound 259]
11,++++ (≥75% = ++++),269 (GLLDCPIFL; listed as Homo sapiens) [compound 269]
12,+++ (≥50% = +++),233 (SLFESLEYL; listed as Homo sapiens) [compound 233]
13,++ (≥20% = ++),174 (ALYSGDLHAA; listed as Homo sapiens) [compound 174]
14,+++ (≥50% = +++),267 (YLLDMPLWYL; listed as Homo sapiens) [compound 267]
15,++ (≥20% = ++),279 (VLMDEGAVLTL; listed as Homo sapiens) [compound 279]
16,++ (≥20% = ++),171 (LLLLDVPTA; listed as Homo sapiens) [compound 171]
17,+++ (≥50% = +++),175 (SLLDLVQSL; listed as Homo sapiens) [compound 175]
18,+++ (≥50% = +++),183 (ALSYILPYL; listed as Homo sapiens) [compound 183]
19,+++ (≥50% = +++),167 (LVVDEGSLVSV; listed as Homo sapiens) [compound 167]
20,+++ (≥50% = +++),165 (SLLDYEVSI; listed as Homo sapiens) [compound 165]
21,+++ (≥50% = +++),204 (SEWGSPHAAVP; listed as Homo sapiens) [compound 204]
22,+++ (≥50% = +++),246 (ALAGIVTNV; listed as Homo sapiens) [compound 246]
23,+++ (≥50% = +++),280 (HLWGHALFL; listed as Homo sapiens) [compound 280]
